In publication PMC4660060, “The molecular architecture of the Dam1 kinetochore complex is defined by cross-linking based structural modelling” (Nature Communications, 2015):
Residue numbers refer to the chain shown, from its start. Names and notes keep the numbering of the source.

B1: Dam1 complex (complex, yeast)
chain 1: MDSASKEETLEKLDQEITVNLQKIDSNLSFCFHKITQDIIPHVATYSEICERIMDSTEWLGTMFQETGLVNLQANAAAPVGNAPVKSLVSNNVGIFPTSAEEASRQSQTDNGPNEADSAVHVNRDVHSMFNNDSIDDFHTANITSTGQILKLPDSSDEDTGSEAVPSREQTDLTGEGHGGADDEQDESTIQRQSRKRKISLLLQQQYGSSSSMVPSPIVPNKMRKQLAHEEHINNDGDNDDENSNNIESSPLKQGHHHPKGQADDNNEGPDEEESTKEVPKPGTIIHFSTNR
chain 2: MMASTSNDEEKLISTTDKYFIEQRNIVLQEINETMNSILNGLNGLNISLESSIAVGREFQSVSDLWKTLYDGLESLSDEAPIDEQPTLSQSKTK
chain 3: MDSIDEQIAIKRKELQSLQKITSLTDGLKIQLTELNEQIKEMGMNADSVAQLMNNWDSIINNISQASLGLLQYAEGDYEIGPWKDSKKKESEQSNETGLEAQENDKNDEDNDEDEDLVPLPETMVRIRVDGNE
chain 4: MEHNLSPLQQEVLDKYKQLSLDLKALDETIKELNYSQHRQQHSQQETVSPDEILQEMRDIEVKIGLVGTLLKGSVYSLILQRKQEQESLGSNSK
chain 5: MENPHEQVQANILSRIIGNVKRLNESVAILNQELVTINNRNKNLEIMGAICDNYHSSVQFNLEATNNKKPPL
chain 6: MSEDKAKLGTTRSATEYRLSIGSAPTSRRSSMGESSSLMKFADQEGLTSSVGEYNENTIQQLLLPKIRELSDSIITLDSNFTRLNFIHESLADLNESLGSLLYGIMSNSWCVEFSQAPHDIQDDLIAIKQLKSLEDEKNNLVMELSNMERGIKRKKDEQGENDLAKASQNKQFNQPLFPSSQVRKYRSYDNRDKRKPSKIGNNLQVENEEDYEDDTSSEASFVLNPTNIGMSKSSQGHVTKTTRLNNNTNSKLRRKSILHTIRNSIASGADLPIENDNVVNLGDLHPNNRISLGSGAARVVNGPVTKNRNSMFSGRAERKPTESRHSVAKKTEKKINTRPPFR
chain 7: MSEQSQLDDSTIDKLIPQIFNEMRSNLNNTTNKFPKSTGGGASDNISANSNSIRSFNSITTQSLLKESESLDKITAMIKNVTAALKNNLPVYVNQVHEVCKSTNSILDSWINIHSQAGYIHKLMSDQTYLKLINDRLHNENVNTNDEDGSTLHNVIALKKKEILDLRQKLENRKGEKDAAPAKPPNQGLNPRYGVQSGRRPVPSAGISNNGRVRKTHVPASKRPSGIPRVTNRWTKPTASSSRKMFR
chain 8: MNANKQRQYNQLAHELRELQTNLQETTKQLDIMSKQCNENLVGQLGKVHGSWLIGSYIYYMEQMLGKTQ
chain 9: MTDALEQSVLALEGTVSVLKDSVESLKCANEPSTNLASTMLQTKRVFRLVPEYDVERSKLDLIEEVEPLVRTLGDKLRKSMGRMQRELDTLQQTYELNDLRLKKNISMDDDDALNSPDMGQEYEGRDADDVVMMASSTNEELEELKKLKEKKKQLENKLEILKQK
chain 10: MGESLDRCIDDINRAVDSMSTLYFKPPGIFHNAILQGASNKASIRKDITRLIKDCNHDEAYLLFKVNPEKQSVSRRDGKEGVFDYVIKRDTDMKRNRRLGRPGEKPIIHVPKEVYLNKDRLDLNNKRRRTATTSGGGLNGFIFDTDLIGSSVISNSSSGTFKALSAVFKDDPQIQRLLYALENGSVLMEEESNNQRRKTIFVEDFPTDLILKVMAEVTDLWPLTEFKQDYDQLYHNYEQLSSKLRFIKKEVLLQDDRLKTMSQYHPSSSHDVAKIIRKEKDEIRRLEMEIANLQE
notes: Ten different subunits; also called Dam1 kinetochore complex; free Dam1 complex; copies: + + + + + + + + +
B2: Dam1-GFP NP complex, phosphorylated by Ipl1 (Dam1p S257A, S265A, S292A, Ask1p S200A, Spc34p T199A; Dam1p S20 phosphorylated) (complex, yeast)
chain 1: B1 chain 1 with S200A
chain 2: B1 chain 2
chain 3: B1 chain 3
chain 4: B1 chain 4
chain 5: B1 chain 5
chain 6: B1 chain 6 with S257A, S265A, S292A
chain 7: B1 chain 7
chain 8: B1 chain 8
chain 9: B1 chain 9
chain 10: B1 chain 10 with T199A
modifications: phosphoserine at S20 (by Ipl1 kinase, nearly stoichiometric)
notes: GFP-tagged complex, detected by its GFP; In the tracer assay 20 pM of this complex met 2 nM of the same phosphorylated mutant complex without GFP; also called Dam1 NP phos; Dam1 NP; source: recombinant Dam1 complex (E. coli BL21 Rosetta, purified); phosphorylated with GST-Ipl1, GST-Sli15 (554-698) and 10 mM ATP, 90 min, 30 °C; copies: + + + + + + + + +

Legend:
[1] = biological target: the molecule itself; assay: electron microscopy; cross-linked Dam1 complex on MTs examined by EM
[2] = biological target: the molecule itself; assay: TIRF microscopy, tracer residence time; GFP-tagged and unlabelled versions of the same mutant Dam1 complex mixed 1:100 to 2 nM in all (20 pM tracer), on immobilised MTs; BRB80, 0.8 mg/ml kappa-casein, 50 mM KCl, oxygen scavengers; concentrations that support oligomeric rings

Protein | binding result [1] | fold increase of the average residence time on MTs against single molecules [2] [fold]
B1 | binds | –
B2 | – | 2
